Experiment [1] has as its target ^125I labeled (Y)HA306–318 (influenza). Briefly: radioligand binding.
In experiment [2] the target is DP401: DPA1*0103/DPB1*0401 (human). Briefly: AlphaScreen or HTRF.
For experiment [3], the target named is DR1GrpE: DR1 α chain 1–181 and β chain 1–190 fused C-terminally to GrpE, not biotinylated (human). The experiment is described as follows: AlphaScreen or HTRF. (In general: In Alpha technology, singlet oxygen from a donor bead excites a nearby acceptor bead.)
For experiment [4], the target named is DR2a (DRA*0101/DRB5*0101) with non-biotinylated β chain, competitive LOCI assay (human). Briefly: AlphaScreen or HTRF.
Experiment [5] deals with DR2a (DRA*0101/DRB5*0101), biotinylated, direct LOCI assay at pH 6 (human). Briefly: AlphaScreen or HTRF.
For experiment [6], the target named is DR4 (DRA*0101/DRB1*0401), biotinylated, LOCI assay (human). Briefly: AlphaScreen or HTRF.
The target of experiment [7] is DRB1*0813: DRA*0101/DRB1*0813 (human). Briefly: AlphaScreen or HTRF.
In experiment [8] the target is DRB3*0301: DRA*0101/DRB3*0301 (human). Briefly: AlphaScreen or HTRF.
Experiment [9] addresses I-E^d (mouse MHC class II) (mouse) (UniProt P01904). Briefly: AlphaScreen or HTRF.

Experimental findings from publication PMC2690590, “Functional recombinant MHC class II molecules and high-throughput peptide-binding assays” (Immunome Research, 2009) are described below.

“DR1: DRA*0101(1–191)/DRB1*0101(1–198) (complex)”: the half-maximal effective concentration (EC50) in experiment [1] stood at 0.02 µM.
Turning to “6xH Influenza A (PR8) HA 109–119 peptide …”, the Kd was determined as 0.001 µM in experiment [2]; 0.009 µM in experiment [5]; 1.87 µM in experiment [6]; 0.181 µM in experiment [7]; 1.53 µM in experiment [8]; 0.984 µM in experiment [9]. In addition, the IC50 in [3] came out at 0.325 µM; in [4], 0.023 µM.

In general, EC50 refers to the concentration giving half of the maximal effect. High values mean a less potent agent, low ones a more potent agent. Broadly, the Kd is the equilibrium constant for the complex coming apart. A word on the IC50: it is the concentration that gives 50% inhibition. Low values mean greater potency, high ones weaker potency.
